{"source": "patent US20240199736A1", "about": "“COMBINATION THERAPY INVOLVING ANTIBODIES AGAINST CLAUDIN 18.2 FOR TREATMENT OF CANCER” (ASTELLAS PHARMA INC., priority 2021, published 2024)", "origin": "cited, not measured here", "key": {"[1]": {"biological_target": "first extracellular domain (ECD1) of CLDN18.2 (Homo sapiens, UniProt P56856)"}, "[2]": {"biological_target": "splice variant 1 of Claudin 18 (CLDN18.1) (Homo sapiens, UniProt P56856)"}}}
{"substance": "IMAB362: chimeric IgG1 antibody directed against CLDN18.2; heavy chain SEQ ID NO: 51, light chain SEQ ID NO: 24", "values": [{"measurement": "Recognition of ECD1 of CLDN18.2", "setting": "[1]", "result": "high affinity and specificity"}, {"measurement": "Binding to other claudin family members including CLDN18.1", "setting": "[2]", "result": "does not bind"}]}
